Laboratory results published in paper doi:10.1101/216812.

Target: biotinylated, taxol-stabilized microtubules tethered to coverslips (TIRF binding assays)
Test: TIRF microscopy of single particles

Substance	fold change of average residence time against wild-type KKT4 [fold]	average residence time [s]
549SNAP-6HIS-3FLAG-KKT4 charge-reversal mutant (R123E, K132E, R154E), full length (natural protein)	2	
549SNAP-6HIS-3FLAG-KKT4, full-length wild-type KKT4 (natural protein)		5.4
